In article PMC12578645 (2025):

B1: gB-Ecto.H516P.L531E (HSV-1 glycoprotein B ectodomain stabilized in the prefusion conformation) (domain or fragment)
chain: not shown
modifications: N-linked glycans (densities seen at 141, 398, 430 and 674)

Legend:
Experiment in all cases: SPR
[1] = target: T1, gB-Ecto.H516P (HSV-1 glycoprotein B ectodomain with H516P and an appended foldon; postfusion) (HSV-1 KOS strain, UniProt P06437 31-728, H516P, N-linked glycans (densities seen at 141, 398, 430 and 674))
[2] = target: B1
[3] = target: T1, gB-Ecto.H516P (HSV-1 glycoprotein B …); remark: listed apart in the source
[4] = target: B1; remark: listed apart in the source
SS55 = target: SS55
SS10 = target: SS10
DL16 = target: DL16
[5] = target: T2, gB-Ecto.H516P.L531E.DS (HSV-1 glycoprotein B ectodomain stabilized in the prefusion conformation with the … (HSV-1 KOS strain, UniProt P06437 31-728, H516P | L531E | A240C | E607C))
[6] = target: T2, gB-Ecto.H516P.L531E.DS (HSV-1 …); remark: listed apart in the source

| Binder | koff [1] | koff [2] | Kd [3] | Kd [4] | koff [5] | Kd [6] | other results |
| --- | --- | --- | --- | --- | --- | --- | --- |
| D48 Fab (Fab, V domains shown) VH: EVQLVETGGGVVRPGRSLRLSCTTSGFSFSGSAMHWVRQAPGKGLEWVAVISHDGNIIQYHDSVKGRFTISRDNSKNVLLLQMNSLRVDDTAMYYCARDVWLLPATISYAFDFWGQGTMVTVSS VL: VIWMTQSPPSLSASIGDTVTITCRASQGISNSIAWYQRRPGKAPELLVYAAYRLQSGVPSRLSGSGSGAEYTLTIKNMQPEDFATYYCQQYYDNPLTFGGGTKVEIK | 4.06e-05 s⁻¹ | 1.08e-05 s⁻¹ | 0.252 nM | 0.0272 nM |  |  |  |
| B1 |  |  |  |  |  |  | Kd (SS55): 7.47 nM; koff (SS55): 0.000208 s⁻¹; Kd (SS10): 1.03 nM; koff (SS10): 5.6e-05 s⁻¹; Kd (DL16): 28.2 nM; koff (DL16): 0.0013 s⁻¹ |
| PILRα_G78 ectodomain (paired immunoglobulin-like type 2 receptor alpha, HSV-1 gB co-receptor, with R78G) (receptor) QPSGSTGSGPSYLYGVTQPKHLSASMGGSVEIPFSFYYPWELATAPDVRISWRRGHFHGQSFYSTRPPSIHKDYVNRLFLNWTEGQKSGFLRISNLQKQDQSVYFCRVELDTRSSGRQQWQSIEGTKLSITQAVTTTTQRPSSMTTTWRLSSTTTTTGLRVTQGKRRSDSWHISLETA | 0.66 s⁻¹ | 0.34 s⁻¹ | 2000 nM | 1600 nM |  |  |  |
| PILRα_G78 ectodomain (paired immunoglobulin-like type 2 receptor alpha, HSV-1 gB co-receptor, with R78G) (receptor, engineered disulfide A240C-E607C; N-linked glycans (densities seen at 141, 398, 430 and 674)) QPSGSTGSGPSYLYGVTQPKHLSASMGGSVEIPFSFYYPWELATAPDVRISWRRGHFHGQSFYSTRPPSIHKDYVNRLFLNWTEGQKSGFLRISNLQKQDQSVYFCRVELDTRSSGRQQWQSIEGTKLSITQAVTTTTQRPSSMTTTWRLSSTTTTTGLRVTQGKRRSDSWHISLETA |  |  |  |  | 0.33 s⁻¹ | 1800 nM |  |
| D48 Fab (Fab, V domains shown, engineered disulfide A240C-E607C; N-linked glycans (densities seen at 141, 398, 430 and 674)) VH: EVQLVETGGGVVRPGRSLRLSCTTSGFSFSGSAMHWVRQAPGKGLEWVAVISHDGNIIQYHDSVKGRFTISRDNSKNVLLLQMNSLRVDDTAMYYCARDVWLLPATISYAFDFWGQGTMVTVSS VL: VIWMTQSPPSLSASIGDTVTITCRASQGISNSIAWYQRRPGKAPELLVYAAYRLQSGVPSRLSGSGSGAEYTLTIKNMQPEDFATYYCQQYYDNPLTFGGGTKVEIK |  |  |  |  | 2.18e-05 s⁻¹ | 0.0827 nM |  |
